Laboratory results from IntAct's records for PubMed 25819436.

Assays:
sh3g1_rat Sh3gl1 = sh3g1_rat Sh3gl1 (UniProt O35964)
sh3g2_rat Sh3gl2 = sh3g2_rat Sh3gl2 (UniProt O35179)
amph_rat Amph = amph_rat Amph (UniProt O08838)
grb2_human GRB2 = grb2_human GRB2 (UniProt P62993)

Measured: effect of a mutation on the interaction

Chain of SLIT-ROBO Rho GTPase-activating protein 3 (Homo sapiens), O43295 P1056A;P1059A (O43295 whole entry P1056A/P1059A): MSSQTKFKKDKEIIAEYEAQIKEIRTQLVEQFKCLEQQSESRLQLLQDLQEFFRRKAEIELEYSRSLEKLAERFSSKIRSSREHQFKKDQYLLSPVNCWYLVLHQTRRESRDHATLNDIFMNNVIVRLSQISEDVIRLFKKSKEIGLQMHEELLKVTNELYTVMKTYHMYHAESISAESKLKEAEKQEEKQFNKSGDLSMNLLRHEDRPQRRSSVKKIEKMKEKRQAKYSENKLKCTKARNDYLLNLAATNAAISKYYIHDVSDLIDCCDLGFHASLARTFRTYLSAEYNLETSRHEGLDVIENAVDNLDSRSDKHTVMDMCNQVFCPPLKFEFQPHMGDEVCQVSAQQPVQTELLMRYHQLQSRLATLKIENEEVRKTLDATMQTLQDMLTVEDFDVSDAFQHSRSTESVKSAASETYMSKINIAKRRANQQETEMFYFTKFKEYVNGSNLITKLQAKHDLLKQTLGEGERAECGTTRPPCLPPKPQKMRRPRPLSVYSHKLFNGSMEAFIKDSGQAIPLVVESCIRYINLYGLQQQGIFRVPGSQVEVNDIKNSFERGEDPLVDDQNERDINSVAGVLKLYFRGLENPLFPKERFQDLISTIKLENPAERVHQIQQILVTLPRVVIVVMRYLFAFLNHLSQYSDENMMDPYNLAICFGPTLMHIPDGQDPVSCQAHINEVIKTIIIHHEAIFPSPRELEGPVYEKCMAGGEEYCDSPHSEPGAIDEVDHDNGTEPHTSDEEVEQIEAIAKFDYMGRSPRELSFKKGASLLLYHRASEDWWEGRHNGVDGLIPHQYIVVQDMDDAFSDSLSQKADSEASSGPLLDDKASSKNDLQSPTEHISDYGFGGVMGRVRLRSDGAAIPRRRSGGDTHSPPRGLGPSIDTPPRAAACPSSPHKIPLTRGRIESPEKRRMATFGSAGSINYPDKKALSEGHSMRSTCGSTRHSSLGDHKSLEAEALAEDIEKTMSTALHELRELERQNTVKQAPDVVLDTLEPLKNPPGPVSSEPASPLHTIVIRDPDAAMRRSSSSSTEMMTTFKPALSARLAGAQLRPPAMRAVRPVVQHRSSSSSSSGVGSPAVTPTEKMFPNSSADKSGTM
Chain of grb2_human GRB2 (P62993 whole entry, looked up): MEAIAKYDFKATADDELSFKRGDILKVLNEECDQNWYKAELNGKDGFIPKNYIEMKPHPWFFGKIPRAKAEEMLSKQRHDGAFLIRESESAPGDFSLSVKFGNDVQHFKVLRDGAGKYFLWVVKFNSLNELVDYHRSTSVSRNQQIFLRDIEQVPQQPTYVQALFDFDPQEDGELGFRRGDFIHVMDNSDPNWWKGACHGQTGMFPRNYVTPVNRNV
Chain of sh3g2_rat Sh3gl2 (O35179 whole entry): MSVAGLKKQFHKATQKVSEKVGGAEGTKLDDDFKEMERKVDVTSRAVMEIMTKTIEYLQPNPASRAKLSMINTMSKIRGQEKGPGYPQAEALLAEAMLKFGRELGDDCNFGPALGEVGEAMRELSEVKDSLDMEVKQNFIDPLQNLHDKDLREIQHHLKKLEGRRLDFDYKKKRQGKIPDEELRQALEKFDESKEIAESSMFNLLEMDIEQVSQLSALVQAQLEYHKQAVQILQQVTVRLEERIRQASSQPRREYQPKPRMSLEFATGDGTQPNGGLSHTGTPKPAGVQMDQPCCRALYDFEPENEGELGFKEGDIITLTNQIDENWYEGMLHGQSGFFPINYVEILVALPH
Chain of sh3g1_rat Sh3gl1 (O35964 whole entry): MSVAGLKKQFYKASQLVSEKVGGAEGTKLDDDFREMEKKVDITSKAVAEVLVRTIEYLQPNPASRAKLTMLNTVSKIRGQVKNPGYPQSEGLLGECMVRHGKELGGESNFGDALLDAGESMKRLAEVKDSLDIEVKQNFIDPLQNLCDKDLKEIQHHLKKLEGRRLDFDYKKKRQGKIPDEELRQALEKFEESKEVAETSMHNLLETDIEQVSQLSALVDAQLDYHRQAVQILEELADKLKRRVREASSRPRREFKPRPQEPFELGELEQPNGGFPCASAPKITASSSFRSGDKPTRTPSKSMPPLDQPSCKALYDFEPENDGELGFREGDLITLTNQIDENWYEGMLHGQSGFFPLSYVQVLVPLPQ
Chain of amph_rat Amph (O08838 whole entry): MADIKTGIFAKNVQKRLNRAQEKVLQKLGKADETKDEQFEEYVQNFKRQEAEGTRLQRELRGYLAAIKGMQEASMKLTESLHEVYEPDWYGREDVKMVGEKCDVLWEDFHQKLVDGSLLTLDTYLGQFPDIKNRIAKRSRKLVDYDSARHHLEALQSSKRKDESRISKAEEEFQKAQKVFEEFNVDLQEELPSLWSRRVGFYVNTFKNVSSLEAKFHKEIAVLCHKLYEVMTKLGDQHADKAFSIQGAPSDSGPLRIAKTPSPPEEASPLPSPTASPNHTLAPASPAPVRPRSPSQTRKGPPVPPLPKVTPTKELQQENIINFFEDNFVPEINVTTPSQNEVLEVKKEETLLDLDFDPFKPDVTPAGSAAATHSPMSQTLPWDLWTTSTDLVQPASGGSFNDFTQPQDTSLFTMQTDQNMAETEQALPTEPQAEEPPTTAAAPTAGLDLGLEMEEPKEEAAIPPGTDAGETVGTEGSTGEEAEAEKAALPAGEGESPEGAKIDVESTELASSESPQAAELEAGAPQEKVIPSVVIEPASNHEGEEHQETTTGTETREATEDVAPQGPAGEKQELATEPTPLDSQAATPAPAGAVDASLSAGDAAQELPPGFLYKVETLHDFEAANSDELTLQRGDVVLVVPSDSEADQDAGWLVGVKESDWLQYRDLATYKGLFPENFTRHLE

SLIT-ROBO Rho GTPase-activating protein 3 (Homo sapiens), O43295 P1056A;P1059A
disrupting interaction: all assays above
